In a protein production outcome set (Wang et al. 2014):

Experiment: label from the status in PepcDB records

| Sequence | protein production |
| --- | --- |
| SEEPPVREEEEEEGEEDEERDEVGPEGALGKSPFQLTAEDVYDISYLLGRELMALGSDPRVTQLQFKVVRVLEMLEALVNEGSLALEELKMERDHLRKEVEGLRRQSPPASGEVNLGPNKMVVDLTDPNRPRFTLQELRDVLQERNKLKSQLLVVQEELQCYKSGLIPPREGPGGRREKDAVVTSAKNAGRNKEEKTIIKKLFFFRSGKQT | failed |
| SEPGEELEEEGSPGGREDGFTAEHLAAEAMAADMDPWLVFDARTTPATELDAWLAKYPPSQVTRYGDPGSPNSEPVGWIAVYGQGYSPNSGDVQGLQAAWEALQTSGRPITPGTLRQLAITHHVLSGKWLMHLAPGFKLDHAWAGIARAVVEGRLQVAKVSPRAKEGGRQVICVYTDDFTDRLGVLEADSAIRAAGIKCLLTYKPDVYTYLGIYRANRWHLCPTLYESRFQLGGSARGSRVLDRANNVELT | not failed |
| SESICNSLNSKLEPTLENLENLDVSAFQAPEDLLDGCRIYLCGFSGRKLDKLRRLINSGGGVRFNQLNEDVTHVIVGDYDDELKQFWNKSAHRPHVVGAKWLLECFSKGYMLSEEPYIH | not failed |
| SESKIACHHTVHGFEQRRGLHSRNEKAMEYVAKGWSAIKEVERVIDYCELNDRRLIPLLRGAKENFELALEADNLNTHARYWLSKLHLKYHVPGACKAVGAALLVEAADMGNADAQYELGCRLRVENDHVQSDQQAFHYIENAVDQLHPGALYLLGIVYLTGDCVKQDVDSAIWCFHRASEKGHAGAAIAYGSLLLRGVQVPESLTKLNVVGVSPPKRARKNLENPEMNPLEMAKEQFQIAARAGCDLGLKWLQRVEQEEKLLMREQDNECAYV | failed |
| SESQDIKALQKELEQFAKLLKQKRITLGYTQADVGLTLGVLFGKVFSQTTICRFEALQLSFKNMCKLRPLLQKWVEEADNNENLQEICKAETLVQARKRKRTSIENRVRGNLENLFLQCPKPTLQQISHIAQQLGLEKDVVRVWFCNRRQKGKRSSSDYAQ | not failed |
| SETQSFVVSVAGSDRVGIVHDFSWALKNISANVESSRMACLGGDFAMIVLVSLNAKDGKLIQSALESALPGFQISTRRASSVAERHVSPDTREYELYVEGPDSEGIVEAVTAVLAKKGANIVELETETLPAPFAGFTLFRMGSRVAFPFPLYQEVVTALSRVEEEFGVDIDLEEVVEGEDSEEDDDSPNSPVGRH | not failed |
| SGCGGSRADAIEPRYYESWTRETESTWLTYTDSDAPPSAAAPDSGPEAGGLHSGMLEDGLPSNGVPRSTAPGGIPNPEKKTNCETQCPNPQSLSSGPLTQKQNGLQTTEAKRDAKRMPAKEVTINVTDSIQQMDRSRRITKNCVN | failed |
| SGCIQSITCKARIRRENIVVYDVCATIDQCPTRIEETSPIVLRYKTPYFKASARVVMPPIPRHETWVVGWIQACNQMEFFNTYSDLGMSSWELPDLREGRVKAISDSDGVSYPWYGNTTETVTLVGPTNKISRFSVSMNDNFYPSVTWAVPVSDSNVPLLTRIKRDQSFTTWLVAMNTTTKEKIILQTIKWRMRVDIEVDPLQLLGQRARLVGRTQQEQPRILSRMEPIPPNALVKPNANDAQVLMWRPKRGPPLVVIPPK | not failed |
| SGGRRSSWIKNWTLWKHFKDYFPIHLIKTQDLDPSHNYIFGFHPHGIMAVGAFGNFSVNYSDFKDLFPGFTSYLHVLPLWFWCPVFREYVMSVGLVSVSKKSVSYMVSKEGGGNISVIVLGGAKESLDAHPGKFTLFIRQRKGFVKIALTHGASLVPVVSFGENELFKQTDNPEGSWIRTVQNKLQKIMGFALPLFHARGVFQYNFGLMTYRKAIHTVVGRPIPVRQTLNPTQEQIEELHQTYMEELRKLFEEHKGKYGIPEHETLVLK | not failed |
| SGTFDSQCHECFESKERWYEIGPTDLLERKGSLTLRSHHKKYSEPVLVYSWHRNREAFPKDYDIESLETVKNLCMSTYKRFGSDSPRWMSEAREQMAQVLVNKDLVEKKKTGLLDEETLCPGILERDPELPPTGFRDVPMESPPDPRKPCFSTTYSEDFTPQYEYPPPACPRREEYSIVHRKCRSQFTDLNGSKRLGINTWHDESGIYANSEAKQKLYALARNPIVPF | failed |
| SIEVRGKIKLGLLPETYEHLQPILFEFQDQYPQVELDIRNINNGFIDMFQQGLDIALHGGMLFDSDIVARKILTLDRCVVASPNYLQTHGTPATLEELSDHQCICFRWPNGNVDNLWHFQEQNVALKPKLISNNIGFIK | failed |
| SKEDTEITIQKIMDAVVDQLLRLGYDKMSYTTLSQQTGVSRTGISHHFPKKTDFTAALDGRIFKMFIEHLEFEKGLDAFSQSWIKALEDSEFLAILRLLFHHIVTSESAHEFAANGIDRLYKMVESQFGSGGDKELEWLIGRSLIQ | failed |
| SKGRPQIDSSKATDKINPMDFTFVEINEAVKLVEMGVATPQDIDTAIKLGLNRPFGPFELAKQFGAEQIAKRLEELAKQFGKKIFEPAKTLKEGKLEELLKAGKAE | not failed |
| SKQDASRNAAYTVDCEDYVHVVEFNPFENGDSGNLIAYGGNNYVVIGTCTFQEEEADVEGIQYKTLRTFHHGVRVDGIAWSPETRLDSLPPVIKFCTSAADMKIRLFTSDLQDKNEYKVLEGHTDFINGLVFDPKEGQEIASVSDDHTCRIWNLEGVQTAHFVLHSPGMSVCWHPEETFKLMVAEKNGTIRFYDLLAQQAILSLESEQVPLMSAHWCLKNTFKVGAVAGNDWLIWDITRSSYPQNKRPVHMDRACLFRWSTISENLFATTGYPGKMASQFQIHHLGHPQPILMGSVAVGSGLSWHRTLPLCVIGGDHKLLFWVTEV | not failed |
| SKSSEKRQAVDTAVDGVFIRSLKVNCKVTSRFAHYVVTSQVVNTANEAREVAFDLEIPKTAFISDFAVTADGNAFIGDIKDKVTA | failed |
| SKYKILVSFSNPESGKTLLKLANGLTKKLNSNASLTALHLSPTNELHHYNIEEYEKEIFDPIIEESQQLNQKVTTIFKASNDINYEVADTANKGDYDLLLVG | failed |
| SLAGETINFCKGWKFHLGDAGKGASSSSYNDSQWRILNIPHDWSIEGTYKQFENGTDWQSGFLPAGISWYRKTFTIPSKWKNKKVQILFEGVYLNSEVWINGHWLGKRPNGYISFVYDLTPYLQEGKNQIAVKVDHSKALTGRWYTGSGIYRPVYLLVSNPTHIPYSGIHFRSKLQNKQSATYTLSIEIETQEKKPIKVKTYLQAPNGSIADTSEKIFVSSADSLCFLSGSIRKPLLWSPDSPNVYTLICQLTRDNKILDECRLPVGFRQLEFNPVSGFLLNGKSLKIKGVCDHHTVGAVGAAVPDDLLHYRLKLLKDMGCNAIRTSHNPFSPAFYNLCDTMGIMVLNEGLDGWNQPKAADDYGNYFDEWWQKDMTDFIKRDRNHPSIIMWSIGNEVTGATPEIQHNLVSLFHQLDPDRPVTQGGTDPTRGMKTDYQKKFNYLDIIGFNGNGEEIGELEHFHKNYPTLCAIATEVPHTYQTRGVYRSQTQWRRRDFPAPWEKGNINWEQFKHRVFPIPDLTEKECFPEESDYPYYQSSYDNASVRISARKSWQRTCSFPWLMGEFRWGSFDYLGEAEWPQRCGNFGIIDIAAIPKDAYFLYQSLWTDKPMVHLLPHWTHPGKEGKTIPVVIYTNCDAVELFINNVSLGSKPYTGEQLIWLVPYSPGKIEARGIKKGKIVATDCYQSAEAPHSVALASNKYSVKAGSDEVIRIEIDITDKNGIPCPYASNELSFHVSGPLRLLGVDNGNPTDMFPYQQPHCRCFRGKCVVLLQSDEEKGKGTLTVQGTKLVEKKLIIEVIEG | not failed |
| SLDSINTRIAEELSALPSGRVQPQQVAAAVALLDEGSTVPFIARYRKEVTGSLDDTQLRMLEERLRYLRELEERRGAILASIEEQGKLTPELARDIKLADTKTRLEDLYLPYKQKRRTKGQIALEAGLGALADALFDDPTLVPESEAARFVDAEKGFADVKAVLEGAKYILMERFAEDATLLDKLRVFMKNEATLTARVVPGKEQEGAKFSDYFEHDEPLKSAPSHRALAIFRGRNEGVLSASLKVGEEAPGTLHPCEVMIAQRFGLSNQGRAADKWLAEVVRWTWKVKLYTHLETDLFGELRDGAEDEAISVFARNLHDLLLAAPAGPRATLGLDPGLRTGVKVAVVDATGKLLDTATVYPHAPKNQWDQTLAVLAALCAKHQVELIAIGNGTASRETDKLAGELIKKYPGMKLTKIMVSEAGASVYSASELAAKEFPELDVSLRGAVSIARRLQDPLAELVKIEPKSIGVGQYQHDVSQLKLARSLDAVVEDCVNAVGVDVNTASAALLARISGLNSTLAQNIVAHRDANGAFRTRDELKKVSRLGEKTFEQAAGFLRVMNGDNPLDASAVHPETYPLVQRIAADTERDIRSLIGDSAFLKRLDPKKFTDETFGLPTVTDILKELDKPGRDPRPEFKTAEFQEGVESLKDLKPGMVLEGVVTNVTNFGAFVDIGVHQDGLVHISALSEKFVKDPYEVVKAGDIVKVKVMEVDIPRNRVGLSMRMSDTPGEKVEGQRGGRPTGSGQPRQERGAPRGQSAPPANNAMAALFANAKQLKKK | not failed |
| SLFVKESHNTSKGPEATWNLNKVHFVYDSSEKTHFKAPVKVNKYIASSHHLSALVTPAGMSYECQAQQTISLASSDPQKTVTMILSAVHIQPFDIISDFVFSEEHKCPVDEQEQLEETLPLILGLILGLVIVITLVIYHIHHKMTANQVQIPRDRSQYKHMG | failed |
| SLLRFSAVSRHHRGASIDPMTFSEATTPDALTPDAHTPRLLTCDVLYTGMGGAQSPGGVVVVGETVAAAGHPDELRRQYPHAAEERAGAVIAPPPVNAHTHLDMSAYEFQALPYFQWIPEVVIRGRHLRGVAAAQAGADTLTRLGAGGVGDIVWAPEVMDALLAREDLSGTLYFEVLNPFPDKADEVFAAARTHLERWRRLERPGLRLGLSPHTPFTVSHRLMRLLSDYAAGEGLPLQIHVAEHPTELEMFRTGGGPLWDNRMPALYPHTLAEVIGREPGPDLTPVRYLDELGVLAARPTLVHMVNVTPDDIARVARAGCAVVTCPRSNHHLECGTFDWPAFAAAGVEVALGTDSVASGETLNVREEVTFARQLYPGLDPRVLVRAAVKGGQRVVGGRTPFLRRGETWQEGFRWELSRDL | not failed |
| SLRHSPSLWELVEEHVPLRERREVKRILGEAAVDLSLELRAEVAMLRALLQEARSSQAPSSRPISDPSSLLAPPPLLKDLLRQELRQLLQGLRHKAICEGRDQAQAWVQYSPRVLHFALEEPRCDLPEQEIFQMRGGGPSSGHRDLSIIKDQLNVSNIDQVARHLRGLLEEECHTLEREILILQRCLEEEYLRPCHPSEAALEPTLAELKEQKKAMEQELQASVGPSCVSPNHRQRPLGSSTQGLRPPLPLCGVAPLQCCLPAPPLEPYLRPRGQSATHRWGRQLQCSPREGPASTPMSSAAPQAPA | not failed |
| SLSEDKMDLYLQQGMYGPLETKPDERHLFLGSLRERVVLALTKGQVLRSKPYKEAEHELKNSHNVTLLINGELQYQSYSSYIQMASRYGVPFKIVSDLQFHTPLGIVIAADIAVNRELIYIQDDIYNRSVLKS | not failed |
| SLSQTTNIKEQTDTGLAPPAPAITTNSAAIEEQANSSIRKLYHTLNTMPNTSMADRISQISAYFKGTKYILGSLGEGPNARYDQFPRYRVDGFDCDTYVNTVLSLALANSLESFQECLKHTRYKNGKRSYINRNHFTSIDWNNYNQKRGLLKDITFSIRNEKKQPVALYANALINKPQWYNHKTIDTIRLQKQDKNEQEKRLVELKAKGKTLETSLSNVPYIPFTALFSENKPNLHLFSQIPNGAVIEIIRPNWDLRQQIGTELDISHLGFAIWINNELFFRQASSQYGKVVDVSLIDYLDKARSSPTIKGINIQVVLPEKPVSNGCQLFDIR | not failed |
| SLSSKDKDTVKALWGKIADKAEEIGSDALSRMLAVYPQTKTYFSHWKDLSPGSAPVNKHGKTIMGGIVDAVASIDDLNAGLLALSELHAFTLRVDPANFKILSHCILVLLAVKFPKDFTPEVHISYDKFFSALARALAEKYR | not failed |
| SNQLQQLQNPGESPPVHPFVAPLSYLLGTWRGQGEGEYPTIPSFRYGEEIRFSHSGKPVIAYTQKTWKLESGAPMHAESGYFRPRPDGSIEVVIAQSTGLVEVQKGTYNVDEQSIKLKSDLVGNASKVKEISREFELVDGKLSYVVRMSTTTNPLQPHLKAILDKL | not failed |
